One assay addresses T1, C5 (Homo sapiens, UniProt P01031).
T1 construct: C5 alpha and beta subunits were obtained by incubating 50 μg of C5; purchased Quidel
The assay is described as follows: Hemolytic assay, alternative pathway (rabbit erythrocytes). It counts as biochemical. To be noted: 600 ng scFv, increasing amounts of C5, FIG. 4B. As for the experimental part:
Values from spectrophotometric reading performed at 412 nm to measure inhibition of lysis of sheep erythrocytes coated with EAC1-3b, through the classical complement activation pathway (A Panel); or of rabbit erythrocytes in order to measure the alternative pathway of complement activation (B Panel). Increasing amounts of C5 were mixed with 600 ng of the scFv antibody of the invention with an unrelated scFv, or with GVBS in which the scFv of the invention were solubilised, as described in example 9. After incubation with serum lacking in C5, obtained from a patient with selective deficiency of this complement component, the percentage of hemolysis was measured compared to the 100% value obtained by lysing erythrocytes in an equal volume of distilled H2O and a blank obtained by resuspending eythrocytes in GBVS. Having assessed the characteristics of the inhibition of the classical activation pathway of factor C5 by the TS-A12/22 antibody, it was then verified whether there was inhibition also of the alternative pathway of C5 activation, and at which level. […] After incubation for 30 minutes at 37° C., the percentage of erythrocyte lysis was measured by comparison to a 100% value obtained by lysing erythrocytes with an equal volume of distilled of H2O and to a blank consisting of erythrocytes re-suspended in GBVS. […]

In another assay the target is T2, factor C5 (Homo sapiens, UniProt P01031).
T2 construct: C5 alpha and beta subunits were obtained by incubating 50 μg of C5; purchased Quidel
T2 sequence (P01031 678-1676 limits assumed): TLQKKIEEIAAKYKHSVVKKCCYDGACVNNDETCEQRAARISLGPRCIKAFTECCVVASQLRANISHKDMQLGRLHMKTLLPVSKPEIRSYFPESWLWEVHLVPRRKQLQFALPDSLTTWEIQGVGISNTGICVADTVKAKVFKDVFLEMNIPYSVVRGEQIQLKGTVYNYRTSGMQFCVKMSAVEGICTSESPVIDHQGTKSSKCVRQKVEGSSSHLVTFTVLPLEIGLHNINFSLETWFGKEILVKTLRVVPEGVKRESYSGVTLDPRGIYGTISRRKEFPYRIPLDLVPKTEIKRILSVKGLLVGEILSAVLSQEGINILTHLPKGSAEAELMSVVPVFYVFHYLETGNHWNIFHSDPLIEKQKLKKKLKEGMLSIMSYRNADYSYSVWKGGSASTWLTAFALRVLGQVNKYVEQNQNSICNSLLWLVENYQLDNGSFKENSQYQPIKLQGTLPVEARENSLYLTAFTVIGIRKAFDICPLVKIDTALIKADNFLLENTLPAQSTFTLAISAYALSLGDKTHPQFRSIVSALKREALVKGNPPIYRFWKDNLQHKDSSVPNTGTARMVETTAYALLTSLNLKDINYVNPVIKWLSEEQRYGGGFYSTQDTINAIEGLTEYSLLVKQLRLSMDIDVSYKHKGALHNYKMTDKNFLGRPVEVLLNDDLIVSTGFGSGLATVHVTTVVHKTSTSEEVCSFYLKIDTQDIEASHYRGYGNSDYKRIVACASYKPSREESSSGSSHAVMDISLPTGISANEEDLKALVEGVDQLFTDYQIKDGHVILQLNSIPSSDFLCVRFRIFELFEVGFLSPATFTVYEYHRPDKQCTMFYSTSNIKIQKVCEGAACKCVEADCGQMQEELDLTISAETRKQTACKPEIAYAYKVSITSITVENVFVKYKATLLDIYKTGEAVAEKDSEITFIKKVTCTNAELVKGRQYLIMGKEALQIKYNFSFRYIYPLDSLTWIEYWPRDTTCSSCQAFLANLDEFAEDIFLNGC
T2 sequence (P01031 19-673 partner limits assumed): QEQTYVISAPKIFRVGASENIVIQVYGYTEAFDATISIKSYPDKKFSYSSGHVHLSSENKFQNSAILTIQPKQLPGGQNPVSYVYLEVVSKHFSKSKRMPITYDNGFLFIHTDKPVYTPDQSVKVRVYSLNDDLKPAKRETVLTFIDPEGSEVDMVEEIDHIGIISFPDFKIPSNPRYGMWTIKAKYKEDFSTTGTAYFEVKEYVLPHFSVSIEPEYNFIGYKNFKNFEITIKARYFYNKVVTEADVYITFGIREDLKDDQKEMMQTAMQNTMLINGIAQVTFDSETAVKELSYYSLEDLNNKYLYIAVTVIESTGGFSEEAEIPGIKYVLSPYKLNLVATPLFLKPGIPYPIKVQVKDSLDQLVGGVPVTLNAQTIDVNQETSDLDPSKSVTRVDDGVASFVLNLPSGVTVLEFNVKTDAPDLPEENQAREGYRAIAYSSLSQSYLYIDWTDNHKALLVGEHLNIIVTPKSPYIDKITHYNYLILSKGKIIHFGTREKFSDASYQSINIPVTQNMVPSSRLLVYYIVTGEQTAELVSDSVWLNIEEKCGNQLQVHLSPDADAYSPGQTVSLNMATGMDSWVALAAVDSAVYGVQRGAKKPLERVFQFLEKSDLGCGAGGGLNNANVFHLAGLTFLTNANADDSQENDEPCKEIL
In words: Surface plasmon resonance (BIACORE 2000) on C5 immobilized on chip. Format: binding. The following applies: TS-A12/22 versus TS-A12 after VL chain shuffling. On the procedure: The binding affinity of the Tsa-12 antibody, purified by means of FPLC on Superdex 75 (Pharmacia), for factor C5 was measured by means of BIACORE™ 2000 (a system that generates unique data on the interactions between proteins and other molecules). The microchip (CM5, Biacore) was prepared by direct conjugation of the C5 antigen with amines (20 μg/ml in 10 mM Sodium Acetate pH 4.5). The final level of immobilisation turned out to be approximately 1000 RU (Resonance Units). Association and dissociation of antibody molecules from the bio-chip were measured using an optical detection system (Surface Plasmon Resonance). The analysis was carried out at 25° C., at a flow of 15 μl/min, using 4 different scFv concentrations in the range comprised between 100-300 nM, in PBS, 0.005% P20 (Biacore). The binding curves were interpolated 1:1 according to the model of Langmuir, using the dedicated software termed BIAevaluation (version 3.5) with correction for the mass transfer. In order to increase the affinity, the TS-A12 antibody was subjected to substitution (“shuffling”) of the VL light chains. For this purpose the phagemid DNA was cut with BssHII and SaII to excise the VL region. This region was substituted with all the repertoire of VL chains of a preimmune library (Sblattero, D., and Bradbury A., 2000, Nat. Biotechnol. 18:75) that was prepared with same enzymes. […]

Experimental findings from US8962819B2, “Anti-C5 alpha antibodies” (Adienne S.A., priority 2002, dated 2015) are described below.

T1 sequence (P01031 678-1676 limits assumed): as the sequence (P01031 678-1676 limits assumed) above
T1 sequence (P01031 19-673 partner limits assumed): as the sequence (P01031 19-673 partner limits assumed) above

B1: TS-A12/22: anti-C5 scFv obtained from TS-A12 by VL chain shuffling; VH3/V-48 and Vλ3/V2-14; amino acid sequence SEQ ID NO:6 (protein, listed as Homo sapiens)
scFv: DIRMTQSPDSLAVSLGERATINCKSSQSVLYSSNNKNYLAWYQQKPGQPPKLLIYWASTRESGVPDRFSGSGSGTDFTLTISSLQAEDVAVYYCQQYYSTPQLTFGGRTKVDIKSGGSTITSYNVYYTKLSSSGTQVQLQQSEGGVVQPGRSLRLSCAASGFTFSSYGMNWVRQAPGKGLEWVSYISSSSSTIYYADSVKGRFTISRDNSKNTLYLQMNSLRAEDTAVYYCARGPGMDVWGQGTTVTVSS
For the molecule B1, in the assay with C5, the “inhibition of lysis of rabbit erythrocytes through the alternative pathway” value is “inhibits”. The “increment of molar affinity” value with factor C5 is listed as “approximately one order of magnitude”.
